Columns and labels:
[1] = target: GST-fused human PPARγ-LBD (human); test: AlphaScreen or HTRF; LanthaScreen TR-FRET coregulator peptide assay; serial concentrations of rosiglitazone with GST-PPARγ-LBD, terbium-labeled anti-GST antibody and fluorescein-labeled peptide, 4 h; 520 nm/495 nm ratio
[2] = target: GST-fused human PPARγ-LBD (human); test: AlphaScreen or HTRF; LanthaScreen TR-FRET coregulator peptide assay; serial concentrations of F12016 with GST-PPARγ-LBD, terbium-labeled anti-GST antibody and fluorescein-labeled peptide, 4 h; coactivator data as percent of the maximum of rosiglitazone

Substance | efficacy (maximum recruitment, % of rosiglitazone), with rosiglitazone [1] [%] | efficacy (maximum recruitment, % of rosiglitazone), with F12016 [2] [%]
CREB-binding protein (CBP) peptide, fluorescein-labeled | 100 | 10
steroid receptor coactivator (SRC) 1 peptide, fluorescein-labeled | 100 | 26
steroid receptor coactivator (SRC) 3 peptide, fluorescein-labeled | 100 | 23
transcriptional intermediary factor 2 (TIF2) peptide, fluorescein-labeled | 100 | 17

Source: article PMC4381330, “Identification of a novel selective agonist of PPARγ with no promotion of adipogenesis and less inhibition of osteoblastogenesis” (Scientific Reports, 2015)
